Data on one protein can be found in patent US20150037829A1 (MIT, published 2015).

The series deals with the molecule itself. As to the kind of experiment: gel filtration chromatography, self-association. As to the method:
APX, fluorescent protein, or miniSOG preparations were diluted to the desired concentrations using chilled (4° C.) PBS and then allowed to incubate at room temperature for 30 min to overnight. Samples ([…]) were run on a Waters HPLC system over a Superdex 75 10/300 column (GE Healthcare) that had been pre-equilibrated in PBS, pH 7.4. Samples were run isocratically in PBS at a flow rate of 0.5 mL/min. Elution of APX was monitored at 280 nm and 405 nm (heme absorbance). Empower software (Waters) was used for analysis of elution profiles. Apparent MWs were determined against low molecular weight standards (GE). […] This estimation was applied for all proteins in FIG. 4d except wt APX, which was predominantly dimeric at 0.25 μM. The apparent MW of the monomer for wt APX was assumed to be equal to the apparent MW of mAPX at 0.25 μM.
In general terms: SEC sorts molecules by how far they enter the pores of the column.

B1: wild-type pea cytosolic ascorbate peroxidase (APX), N-terminally His6-tagged (enzyme)
chain: RGKSYPTVSPDYQKAIEKAKRKLRGFIAEKKCAPLILRLAWHSAGTFDSKTKTGGPFGTIKHQAELAHGANNGLDIAVRLLEPIKEQFPIVSYADFYQLAGVVAVEITGGPEVPFHPGREDKPEPPPEGRLPDATKGSDHLRDVFGKAMGLSDQDIVALSGGHTIGAAHKERSGFEGPWTSNPLIFDNSYFTELLTGEKDGLLQLPSDKALLTDSVFRPLVEKYAADEDVFFADYAEAHLKLSELGFAEA
modifications: heme cofactor (non-covalent)
notes: the entries describe its self-association (homodimer) in gel filtration; also called wt APX; wtAPX; not shown: N-terminal His6-tag
Take B1: the binding result is on record as “binds”.
